Results on six molecules are retold here after patent US20080019962A1.

What is called Ki is a measure of affinity in units of concentration, obtained from inhibition or displacement.

Assay [1] concerns the target protease domain of Endotheliase-2 (ET2) (human) (UniProt Q9BYE2). Description: continuous in vitro enzyme assay, inhibition of ET2 protease activity by soluble Fab.
For assay [2] the target is unchanged. The experiment in a line: continuous in vitro enzyme assay on rET2, Fab.
The target is the same in assay [3]. The experiment in a line: continuous in vitro enzyme assay on rET2, IgG1.

Chain of protease domain of Endotheliase-2 (ET2) (human) (Q9BYE2 other isoform, or with tags, fused parts or gaps limits assumed): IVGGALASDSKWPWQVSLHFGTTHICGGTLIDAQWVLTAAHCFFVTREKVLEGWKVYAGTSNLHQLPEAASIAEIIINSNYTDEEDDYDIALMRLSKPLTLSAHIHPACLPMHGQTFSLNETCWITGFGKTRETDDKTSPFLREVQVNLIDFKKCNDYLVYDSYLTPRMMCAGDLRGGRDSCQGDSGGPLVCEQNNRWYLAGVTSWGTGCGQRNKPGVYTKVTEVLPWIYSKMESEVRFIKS

B1: Fab D2 (Fab, V domains shown)
VH: EVQLLESGGGLVQPGGSLRLSCAASGFTFSRYRMYWVRQAPGKGLEWVSSISPSGGDTRYADSVKGRFTISRDNSQNTLYLQMNSLRAEDTAVYYCARGGPRGNKYYFDYWGQGTLVTVSS
VL: DIQMTQSPSSLSASVGDRVTITCRASQTIDNYLNWYQQKPGKAPKLVVYAASTLQTRVPSRFSGSGSGTDFTLTIDSLKPEDFATYFCQQGFSNPWTFGQGTTVAMIR
With B1, the Ki is 90 pM in assay [1] and 95 pM in assay [2].

B2: C9 IgG1 antibody (Fab C9 reformatted) (antibody, V domains shown)
VH: EVQLLESGGGLVQPGGSLRLSCAASGFTFSRYPMFWVRQAPGKGLEWVSYISSSGGFTGYADSVKGRFTISRDNSKNTLYLQMNSLRAEDTAVYYCARGGPRGNKYYFDYWGQGTLVTVSS
VL: QSVLTQPASVSGSPGQSITISCTGTSSDVGHYNYVSWYQQHPGKAPKVMIYDVSSRPSGVSDRFSGSKSGNTASLAISGLQAEDEADYYCSSYTSGDTLYVFGTGTKVTVLG
For the molecule B2, the Ki in assay [3] stood at 110 pM.

B3: Fab C9 (Fab, V domains shown)
VH: EVQLLESGGGLVQPGGSLRLSCAASGFTFSRYPMFWVRQAPGKGLEWVSYISSSGGFTGYADSVKGRFTISRDNSKNTLYLQMNSLRAEDTAVYYCARGGPRGNKYYFDYWGQGTLVTVSS
VL: QSVLTQPASVSGSPGQSITISCTGTSSDVGHYNYVSWYQQHPGKAPKVMIYDVSSRPSGVSDRFSGSKSGNTASLAISGLQAEDEADYYCSSYTSGDTLYVFGTGTKVTVLG
Turning to B3, the values for the Ki in assay [1] and in assay [2] were 260 pM and 310 pM, respectively.

B4: Fab A2 (Fab, V domains shown)
VH: EVQLLESGGGLVQPGGSLRLSCAASGFTFSRYRMYWVRQAPGKGLEWVSSISPSGGDTRYADSVKGRFTISRDNSQNTLYLQMNSLRAEDTAVYYCARGGPRGNKYYFDYWGQGTLVTVSS
VL: DIQMTQSPSFLSAFVGDRVTITCRASQDIRSDLAWYQQTPGKAPKLLIYAASTLKDGAPSRFSGSGSGTEFTLTISSLHPEDLATYYCQHLNGHPAFGPGTKVNIQR
On to B4, for which the values for the inhibition constant (Ki) in assay [1] and in assay [2] were 160 pM and 150 pM, respectively.

B5: Fab D5 (Fab, V domains shown)
VH: EVQLLESGGGLVQPGGSLRLSCAASGFTFSRYDMHWVRQAPGKGLEWVSSISSSGGYTAYADSVKGRFTISRDNSKNTLYLQMNSLRAEDTAVYYCARGARGTSQGYWGQGTLVTVSS
VL: DIQMTQSPGTLSLSPGERGTLSCRASQFVSYSYLAWYQQKPGQAPRLLIYGASSRAKGIPDRFSGSGSGTDFTLTITRLEPEDFAVYYCQQYVPSVPWTFGQGTKVEVKR
As for B5, the Ki in assay [1] and in assay [2] was 70 pM throughout.

B6: D5 IgG1 antibody (Fab D5 reformatted) (antibody, V domains shown)
VH: EVQLLESGGGLVQPGGSLRLSCAASGFTFSRYDMHWVRQAPGKGLEWVSSISSSGGYTAYADSVKGRFTISRDNSKNTLYLQMNSLRAEDTAVYYCARGARGTSQGYWGQGTLVTVSS
VL: DIQMTQSPGTLSLSPGERGTLSCRASQFVSYSYLAWYQQKPGQAPRLLIYGASSRAKGIPDRFSGSGSGTDFTLTITRLEPEDFAVYYCQQYVPSVPWTFGQGTKVEVKR
B6 gave a Ki in assay [3] of 86 pM.
